Results on one substance are retold here after patent publication US20210169973A1.

This assay addresses murine TMEM219 expressed on murine islets and the murine beta cell line beta-TC (mouse) (UniProt Q9D123). Nature of the assay: cell-based or functional assay.
UniProt Q9D123, sequence (Q9D123 39-240): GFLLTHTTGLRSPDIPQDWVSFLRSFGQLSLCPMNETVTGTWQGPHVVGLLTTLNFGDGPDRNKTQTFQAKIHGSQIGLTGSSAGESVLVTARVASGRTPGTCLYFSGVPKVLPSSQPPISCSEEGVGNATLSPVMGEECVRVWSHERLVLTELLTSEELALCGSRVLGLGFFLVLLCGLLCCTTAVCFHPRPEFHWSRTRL

In turn, “recombinant human IGFBP3 (Life Technologies, 10430H07H5) (from UniProt P17936 28-291) (ligand)” yielded an early apoptosis of murine islets by FACS (Annexin V+ 7AAD-), IGFBP3-treated vs. untreated of 87%.
